Measured values reported in patent US20030119716A1, “Methods for screening, treating and diagnosing G-protein coupled receptor-related disorders and compositions thereof” (Wyeth, priority 2001, published 2003).

B1: RGSz1: human RGSz1 expressed from pCR3.1; highly selective for Gαz (protein)
chain: MPQLSQDNQECLQKHFSRPSIWTQFLPLFRAQRYNTDIHQITENEGDLRAVPDIKSFPPAQLPDSPAAPKLFGLLSSPLSSLARFFSHLLRRPPPEAPRRRLDFSPLLPALPAARLSRGHEELPGRLSLLLGAALALPGRPSGGRPLRPPHPVAKPREEDATAGQSSPMPQMGSERMEMRKRQMPAAQDTPGAAPGQPGAGSRGSNACCFCWCCCCSCSCLTVRNQEDQRPTIASHELRADLPTWEESPAPTLEEVNAWAQSFDKLMVTPAGRNAFREFLRTEFSEENMLFWMACEELKKEANKNIIEEKARIIYEDYISILSPKEVSLDSRVREVINRNMVEPSQHIFDDAQLQIYTLMHRDSYPRFMNSAVYKDLLQSLSEKSIEA
B2: RGS2: human RGS2 expressed from pCR3.1; selective GAP for Gαq (protein)
chain: MQSAMFLAVQHDCRPMDKSAGSGHKSEEKREKMKRTLLKDWKTRLSYFLQNSSTPGKPKTGKKSKQQAFIKPSPEEAQLWSEAFDELLASKYGLAAFRAFLKSEFCEENIEFWLACEDFKKTKSPQKLSSKARKIYTDFIEKEAPKEINIDFQTKTLIAQNIQEATSGCFTTAQKRVYSLMENNSYPRFLESEFYQDLCKKPQITTEPHAT
B3: RGS4: human RGS4 expressed from pCR3.1; potent GAP for both Gαq and Gαi (protein)
chain: MCKGLAGLPASCLRSAKDMKHRLGFLLQKSDSCEHNSSHNKKDKVVICQRVSQEEVKKWAESLENLISHECGLAAFKAFLKSEYSEENIDFWISCEEYKKIKSPSKLSPKAKKIYNEFISVQATKEVNLDSCTREETSRNMLEPTITCFDEAQKKIFNLMEKDSYRRFLKSRFYLDLVNPSSCGAEKQKGAKSSADCASLVPQCA

System: c-fos SRE activation in CHO cells stably expressing D2R
Experiment: SRE-luciferase reporter assay, quinpirole-stimulated c-fos SRE activation in CHO-D2R cells
Format: cell-based, Chinese hamster
Settings: for effect of RGS transfection on quinpirole dose-response curve of SRE activation: RGS (2 μg) transfected alone, no Gα co-transfection; for reduction in SRE activation: RGS co-expressed with Gαq/i chimera

Molecule	effect of RGS transfection on quinpirole dose-response curve of SRE activation	reduction in SRE activation	reduction in quinpirole-stimulated SRE activation (RGS co-expressed with Gαi1, 100 nM quinpirole)	inhibition (attenuation) of SRE activation (RGS co-transfected with Gαi1, all quinpirole concentrations used (10 nM-100 μM)) [%]	reduction in quinpirole-stimulated SRE activation (RGS transfected without Gαi1 co-transfection, 100 nM quinpirole)
B1	rightward shift of the dose-response curve				
B2	rightward shift of the dose-response curve	approximately 70%			
B3	rightward shift of the dose-response curve	about 60%	approximately 85%	> 80	approximately 40%
